# Values quoted from earlier work as cited in publication PMC4815360.
# Key:
# [1] = biological target: Endothelin receptor ETA (Rattus norvegicus) (UniProt P26684); assay: radioligand
# [2] = biological target: Endothelin receptor ETA (Homo sapiens) (UniProt P25101); assay: radioligand
# [3] = biological target: Endothelin receptor ETA (Homo sapiens) (UniProt P25101); assay: saturation radioligand binding
# [4] = biological target: Endothelin receptor ETA (Rattus norvegicus) (UniProt P26684); assay: radioligand binding
# UniProt P26684, sequence (P26684 21-426): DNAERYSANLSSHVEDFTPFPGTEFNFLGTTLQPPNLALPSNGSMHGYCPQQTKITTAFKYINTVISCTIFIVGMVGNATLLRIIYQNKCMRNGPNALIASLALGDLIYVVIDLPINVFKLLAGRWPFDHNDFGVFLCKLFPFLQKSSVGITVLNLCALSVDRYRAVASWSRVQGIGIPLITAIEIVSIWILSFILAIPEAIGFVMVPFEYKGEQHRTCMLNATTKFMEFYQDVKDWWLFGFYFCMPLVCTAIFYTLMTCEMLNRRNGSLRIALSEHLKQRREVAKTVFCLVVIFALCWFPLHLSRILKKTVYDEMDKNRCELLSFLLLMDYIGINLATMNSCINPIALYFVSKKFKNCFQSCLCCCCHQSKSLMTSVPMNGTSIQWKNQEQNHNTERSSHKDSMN
# UniProt P25101, sequence (P25101 21-427): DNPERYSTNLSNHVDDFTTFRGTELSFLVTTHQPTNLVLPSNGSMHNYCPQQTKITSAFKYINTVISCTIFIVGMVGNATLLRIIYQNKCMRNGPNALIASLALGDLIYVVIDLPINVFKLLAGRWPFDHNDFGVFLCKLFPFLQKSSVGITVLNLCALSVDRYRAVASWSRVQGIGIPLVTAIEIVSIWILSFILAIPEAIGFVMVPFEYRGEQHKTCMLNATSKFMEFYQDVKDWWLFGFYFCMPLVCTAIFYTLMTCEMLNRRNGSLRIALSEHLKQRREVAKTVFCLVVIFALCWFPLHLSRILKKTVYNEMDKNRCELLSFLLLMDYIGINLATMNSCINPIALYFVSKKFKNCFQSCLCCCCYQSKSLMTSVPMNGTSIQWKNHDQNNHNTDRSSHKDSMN
Kd [1],Kd [2],Kd [3],Kd [4],Substance
0.1 nM,0.4 nM,,,Endothelin-1 (from UniProt P05305)
,,0.7 nM,0.1 nM,Endothelin-2 (from UniProt P20800)
